In publication PMC3398911:

Experiments:
[1] = biological target: GST-RhoC (wild type) (human) (UniProt P08134)
GST-RhoC-43T (human) = GST-RhoC-43T (human) (UniProt P08134)

XPLN-catalysed mant-nucleotide exchange in vitro, fold stimulation [1]: 1.1 fold | XPLN-catalysed mant-nucleotide exchange in vitro, fold stimulation (GST-RhoC-43T (human)): 1.4 fold
B1: GST-XPLN (full length) (enzyme)
chain: MVAKDYPFYLTVKRANCSLELPPASGPAKDAEEPSNKRVKPLSRVTSLANLIPPVKATPLKRFSQTLQRSISFRSESRPDILAPRPWSRNAAPSSTKRRDSKLWSETFDVCVNQMLTSKEIKRQEAIFELSQGEEDLIEDLKLAKKAYHDPMLKLSIMTEQELNQIFGTLDSLIPLHEELLSQLRDVRKPDGSTEHVGPILVGWLPCLSSYDSYCSNQVAAKALLDHKKQDHRVQDFLQRCLESPFSRKLDLWNFLDIPRSRLVKYPLLLREILRHTPNDNPDQQHLEEAINIIQGIVAEINTKTGESECRYYKERLLYLEEGQKDSLIDSSRVLCCHGELKNNRGVKLHVFLFQEVLVITRAVTHNEQLCYQLYRQPIPVKDLLLEDLQDGEVRLGGSLRGAFSNNERIKNFFRVSFKNGSQSQTHSLQANDTFNKQQWLNCIRQAKETVLCAAGQAGVLDSEGSFLNPTTGSRELQGETKLEQMDQSDSESDCSMDTSEVSLDCERMEQTDSSCGNSRHGESNV
